In the supplement of paper PMC9732359 one finds protein stability index data, which are given here for 26 sequences.

The nature of the data set: protein stability index of a GFP-peptide fusion (yeast GPS) (PSI 1-4); higher = more stable; sorted into four equal gates, so the index is relative within each strain. The essentials: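 Mid-log yeast cultures in leucine-free medium, carrying a pooled plasmid library, were sorted into four equal gates by their GFP/Cherry fluorescence ratio. Each plasmid expressed Cherry along with GFP fused upstream of a tiled 17-residue yeast protein peptide. Plasmids recovered from each gate were PCR-amplified and Illumina-sequenced, with reads assigned to strains by barcodes. The protein stability index was obtained by summing each gate's read frequency weighted by its gate number.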

± gives the uncertainty stated by the source.

On to DWIRFVSTKTNEYRLAF [RPL22A], for which the protein stability index by setting is: (doa10∆) 2.03 ± 0.039; (pdr5∆) 2.17 ± 0.045; (san1∆) 2.75 ± 0.064; (ubr1∆) 2.62 ± 0.042.
In the case of INKNSKIALREYINNCK [POP4], the protein stability index is 2.04 ± 0.23 (doa10∆), 2.17 ± 0.098 (pdr5∆), 2.42 ± 0.11 (san1∆) and 1.73 ± 0.14 (ubr1∆).
The corresponding values for YFSNKTSTGIIRCHRED [POP5] are 2.98 ± 0.17, 2.68 ± 0.1, 2.62 ± 0.081 and 2.06 ± 0.059.
IVGPDLAVLALVIVKKG [RPS6A]: the protein stability index stood at 1.26 ± 0.035 (doa10∆), 1.34 ± 0.048 (pdr5∆), 1.19 ± 0.093 (san1∆) and 1.36 ± 0.043 (ubr1∆).
For DHVDGSSEFVSQDTKVI [RRP46] the same measures were 2.64 ± 0.056, 2.24 ± 0.053, 2.44 ± 0.053 and 2.8 ± 0.053.
For KRKCGHTNQLRPKKKLK [RPL40A] the same measures were 2.76 ± 0.038, 2.84 ± 0.036, 2.942 ± 0.028 and 2.994 ± 0.029.
Regarding ELMRIISRNGDTSYKID [SMC1], the protein stability index was found to be 2.83 ± 0.087 (doa10∆), 3.08 ± 0.063 (pdr5∆), 2.99 ± 0.072 (san1∆) and 2.95 ± 0.058 (ubr1∆).
As to AEEFVAGVSHGTLGEIF [SMX3], the protein stability index (ubr1∆) was 3.57 ± 0.28.
Turning to SMGSILLSFVLGVVFGR [YML031W/NDC1], the protein stability index is, setting by setting: (doa10∆) 2.39 ± 0.046; (pdr5∆) 2.13 ± 0.043; (san1∆) 2.56 ± 0.055; (ubr1∆) 2.64 ± 0.059.
For LPRELPKLLDALNKISK [SNU114], the protein stability index by setting is: (doa10∆) 2.65 ± 0.072; (pdr5∆) 2.74 ± 0.083; (san1∆) 2.84 ± 0.077; (ubr1∆) 2.88 ± 0.062.
For GSFNEMKRNCGQIITLF [RMP1] the same measures were 2.74 ± 0.064, 2.91 ± 0.06, 2.55 ± 0.062 and 2.87 ± 0.052.
For VKLTYNSPSSALRALQE [YDL088C/ASM4] the same measures were 2.42 ± 0.058, 2.44 ± 0.066, 2.62 ± 0.088 and 2.03 ± 0.038.
ATNTFGSNQQSSTGGGL [YGR119C/NUP57]: the protein stability index was 2.89 ± 0.12 (doa10∆), 3.23 ± 0.076 (pdr5∆), 3.15 ± 0.13 (san1∆) and 2.9 ± 0.075 (ubr1∆).
DDLPYYVNALADVLYKT [QCR2] gave a protein stability index (doa10∆) of 2.78 ± 0.061, a protein stability index (pdr5∆) of 2.86 ± 0.052, a protein stability index (san1∆) of 2.63 ± 0.045 and a protein stability index (ubr1∆) of 2.63 ± 0.042.
The corresponding values for QYATVSKTHKTVSRAYG [RPL34A] are 2.05 ± 0.069, 2.31 ± 0.055, 2.41 ± 0.065 and 2.34 ± 0.06.
Consider TIFNLPKNKLVPTLEAK [FAS1], for which the protein stability index worked out at 2.27 ± 0.059 (doa10∆), 2.34 ± 0.081 (pdr5∆), 3.08 ± 0.051 (san1∆) and 3.01 ± 0.061 (ubr1∆).
The corresponding values for FVIPALPAAVSKSLQES [RPC82] are 1.8 ± 0.1, 1.69 ± 0.14, 2.58 ± 0.085 and 2.04 ± 0.12.
For NDIPQTESPLKTVDSSI [SSN2] the same measures were 2.99 ± 0.071, 3.01 ± 0.055, 2.81 ± 0.061 and 3.03 ± 0.032.
Take SFLKEGDLLNAEVQSLF [RRP4]: the protein stability index is 2.57 ± 0.058 (doa10∆), 3.03 ± 0.091 (pdr5∆), 3.04 ± 0.059 (san1∆) and 2.8 ± 0.067 (ubr1∆).
The corresponding values for QISIIDIWSISKKRQAE [YML031W/NDC1] are 2.32 ± 0.056, 2.63 ± 0.052, 2.54 ± 0.053 and 2.79 ± 0.039.
In the case of DQLDSEAASITRKSLNN [ECM29], the protein stability index reads like this: (doa10∆) 2.89 ± 0.1; (pdr5∆) 2.91 ± 0.1; (san1∆) 3.04 ± 0.064; (ubr1∆) 2.95 ± 0.049.
As to EHRRYDDQLKQRRQNIR [RPT4], the protein stability index was found to be 2.62 ± 0.18 (doa10∆), 2.46 ± 0.18 (pdr5∆), 2.29 ± 0.14 (san1∆) and 2.69 ± 0.12 (ubr1∆).
As for LARGLRESTKALTRGEA [RPS12], the protein stability index turned out to be 3.28 ± 0.14 (doa10∆), 3.65 ± 0.12 (pdr5∆), 2.94 ± 0.24 (san1∆) and 3.37 ± 0.044 (ubr1∆).
KFLQEFINLLLNCCGSV [IRR1]: the protein stability index by setting is: (doa10∆) 2.07 ± 0.11; (pdr5∆) 1.74 ± 0.091; (san1∆) 1.57 ± 0.11; (ubr1∆) 1.8 ± 0.062.
NGGLIHVVTREKGPQVC [RPO21]: the protein stability index is, setting by setting: (doa10∆) 2.93 ± 0.14; (pdr5∆) 3.09 ± 0.11; (san1∆) 2.37 ± 0.13; (ubr1∆) 2.96 ± 0.12.
The corresponding values for AFALAKEKAPTIIFIDE [RPT5] are 2.79 ± 0.12, 2.78 ± 0.12, 2.83 ± 0.14 and 2.88 ± 0.086.
